From paper PMC9177848

biological target: LgBiT-mini-Gs fusion protein; experiment: NanoBiT mini-Gαs recruitment assay; settings: agonist fenoldopam; three independent experiments; parent: est. 7.2; read off a plot

| Substance | other: pEC50 |
| --- | --- |
| D1R-SmBiT fusion protein (WT) (from UniProt P21728) L190A | 5 |
| D1R-SmBiT fusion protein (WT) (from UniProt P21728) K81V | 6 |
| D1R-SmBiT fusion protein (WT) (from UniProt P21728) N292L | 5.4 |

More lines, now with the values ahead:

| other: pEC50 | Substance |
| --- | --- |
| 6.6 | D1R-SmBiT fusion protein (WT) (from UniProt P21728) S202A |
| 6.5 | D1R-SmBiT fusion protein (WT) (from UniProt P21728) W321F |
| 6 | D1R-SmBiT fusion protein (WT) (from UniProt P21728) F288A |
| 6.1 | D1R-SmBiT fusion protein (WT) (from UniProt P21728) F289A |
| 5.1 | D1R-SmBiT fusion protein (WT) (from UniProt P21728) S198G |

biological target: smBiT-β-arrestin (an N-terminal smBiT) (UniProt P32121); experiment: NanoBiT β-arrestin recruitment assay; settings: highest fenoldopam concentration shown, log[Fenoldopam] M about -4.3; parent: est. 2.7; read off a plot

| response [fold change] | Substance |
| --- | --- |
| 1.2 | D1R-LgBit (WT) (from UniProt P21728) K81V |
